Substitutions are numbered along the chain they refer to.

First the molecules themselves.
B1: 3.87.1.1 (antibody, V domains shown)
VH: QVQLVESGGGVVQPGRSLRLSCAASGFTFSSYGMHWVRQAPGKGLEWVAVIWYDRSNKYYADSVKGRFTISRDNSKNTLYLQMNSLRAEDTAVYYCAGGRSRGAFDYWGQGTLVTVSS
VL: DIQMTQSPSSVSASVGDRVTITCRASQGISSWLAWYQQKPGKAPKLLIFAASSLQSGVPSRFSGSGSGTDFTLTISSLQPEDFATYYCQRTNSFPRTFGQGTKVEIK
notes: Variable regions only
B2: 3.805.1.3 (antibody, V domains shown)
VH: B1 VH
VL: B1 VL with K45N, F49Y, S93N
notes: Variable regions only
B3: 3.457.3.1 (antibody, V domains shown)
VH: B1 VH with Y107F
VL: B1 VL with P40A, F49Y, A50S
notes: Variable regions only
B4: 3.472.1.1 (antibody, V domains shown)
VH: B1 VH with A61V
VL: B1 VL with G28D, N92S
notes: Variable regions only
B5: 3.772.2 (antibody, V domains shown)
VH: B1 VH with Y107F
VL: B1 VL with G28D, P40A, F49Y
notes: Variable regions only
B6: 2.1954.2 (antibody, V domains shown)
VH: QVQLVESGGGVVQPGRSLRLSCAASGFSFSIYGMHWVRQAPGKGLEWVAVIWFDGSNKYYADSVKGRFTISRDNSKNTLYLQMNSLRAEDTALYYCARDKASYYGSGMDYWGQGTLVTVSS
VL: EIVLTQSPGTLSLSPGERATLSCRASQSVSSTYLAWYQHRPGQAPRLLISGASRRATGIPDRFSGSGSGTDFTLTISRLEPEDFAVYYCQHYGSSFTWTFGQGTKVEIK
notes: Variable regions only
B7: 3.341.1 (antibody, V domains shown)
VH: EVQLVESGGGLVQPGGSLRLSCAASGFTFSSYSMNWVRQAPGKGLEWVSFISGSSSTMYYADSVKGRFTISRDNAKNSLYLQMNSLRDEDTAVYYCARLRYFDWSYAFDIWGQGTMVTVSS
VL: DIQMTQSPSSVSTSVGDRVTITCRASQGIRSWLAWYQQRPGKAPKLLIYAASSLQNGVPSRFSGSGSGTDFTLTISSLQPEDFATYFCQQATSFPFTFGPGTKVDIN
notes: Variable regions only; the assays name clone 3.341.2; also called 3.341.2
B8: 3.818.4 (antibody, V domains shown)
VH: B7 VH with F50Y, S56T, Y101H
VL: B7 VL with R30S, N56S, D105G, N107K
notes: Variable regions only
B9: 2.796.2 (antibody, V domains shown)
VH: QVQLVESGGGLVKPGGSLRLSCAASGFTFSDYYMNWIRQAPGKGLEWVSYISSSGSIIYYADSVKGRFTISRDNAKNSLYLQMNSLRAEDTAVYYCARDGHIAARGMDVWGQGTTVTVSS
VL: DIQMTQSPSSLSASVGDRVTITCRASQSFSRYINWYQQKPGKAPKLLIYAASSLQGGVPSRFSGSGSGTDFTLTISSLQPEDFATYYCQQTYSNPPITFGQGTRLEIK
notes: Variable regions only
B10: 2.737.1.4 (antibody, V domains shown)
VH: B9 VH with S30R, N35S, S49A, Y50F, Y80F
VL: B9 VL with F29I, S30N, R31K, G56S, S63N, L73F, S76N, S77T, N94T
notes: Variable regions only
B11: 2.449.1.3 (antibody, V domains shown)
VH: B9 VH with D99E, H101R
VL: B9 VL with T20S, A25P, Y49H, Q55V, I107M
notes: Variable regions only
B12: 2.2071.1.3 (antibody, V domains shown)
VH: B9 VH with H101R, A103V
VL: B9 VL with I21L, Q27H, F29I, S30N, G56S, S65N, T91S, N94T, K108T
notes: Variable regions only
B13: 2.351.3 (antibody, V domains shown)
VH: QVQLVQSGAEVKKPGASVKVSCKASGYTFIGYYLHWVRQAPGQGLEWMGSINPNSGGTNYAQKFQGRVTMIRDTSINTAYMELSRLRSDDTAVYYCARDKRITMVRGVHYLYYGWDVWGQGTTVTVSS
VL: DIQMTQSPSSLSASVGDRVTITCRASQVISNYLAWYQQKPGKVPQLLIYAASTLQSGVPSRFSGSGSGTDFTLTISSLQPEDVATYYCQNYKSAPWTFGQGTKVEIK
notes: Variable regions only
B14: 2.2002.3 (antibody, V domains shown)
VH: QVQLVESGGGVVQPGRSLRVSCAASGFMFRSYGMHWVRQAPGKGLEWVAVIWHDGSNKNHGDSVKGRFTISRDNSKNTLYLQMNSLRAEDTAVYYCARGRLAGGGPYYYYYYGMDVWGQGTTVTVSS
VL: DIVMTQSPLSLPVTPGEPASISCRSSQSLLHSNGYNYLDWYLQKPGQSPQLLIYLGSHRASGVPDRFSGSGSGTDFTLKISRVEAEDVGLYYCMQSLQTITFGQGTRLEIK
notes: Variable regions only
B15: 2.414.2 (antibody, V domains shown)
VH: QLQLQESGPGLVKPSETLSLTCTVSGGSISSSNYYWGWIRQPPGKGLEWIGTIYYTGSTYYNPSLKSRVTISVDTSKNQFSLKLSSVTAADTAVYYCARHHWVFDYWGQGTLVTVSS
VL: EIVLTQSPDFLSVTPKEKVTITCRASQIIGSSLHWYQQKPDQSPKLLIKYASQSFSGVPSRFSGSGSGTDFTLTLNSLEAEDAATYYCHQSTILPWTFGQGTKVEIK
notes: Variable regions only
B16: 2.998.2 (antibody, V domains shown)
VH: B15 VH with G27D, S32F, N33I, T56S, S85R, L112Q
VL: B15 VL with E1D, S7F, L11Q, I28V, L75I, A80V, I106V
notes: Variable regions only
B17: 2.84.3 (antibody, V domains shown)
VH: B15 VH with S28F, N33S, T56S, S58T, P63S, K77Q
VL: B15 VL with I2V, L11Q, V19I, S31T, Q38K, D70E, L75I, A83T, I93N
notes: Variable regions only; also called 2.84.1; 2.84.2
B18: 2.542.2 (antibody, V domains shown)
VH: B15 VH with N33T, T56S, S85N
VL: B15 VL with K45N, F55V
notes: Variable regions only
B19: 5.16.1 (antibody, V domains shown)
VH: QVQLVQSGAEVKKPGASVKVSCKASGYTFTSYYMYWVRQAPGQGLEWMGIINPSGGSTSYAQKFQGRVTMTRDTSTSTVYMELSSLRSEDTAVYYCARGSSPFFDYWGQGTLVTVSS
VL: DIQMTQSPSSLSASVGDRVTITCRASQIISHFLNWYQQKPGKAPKLLVYVASSLQSGVPSRFSGSGSGTDFTLTISSLQPEDFATYYCQQSFSIPLTFGGGTKVEIK

CSF-1R, sequence (P07333 20-512 limits assumed): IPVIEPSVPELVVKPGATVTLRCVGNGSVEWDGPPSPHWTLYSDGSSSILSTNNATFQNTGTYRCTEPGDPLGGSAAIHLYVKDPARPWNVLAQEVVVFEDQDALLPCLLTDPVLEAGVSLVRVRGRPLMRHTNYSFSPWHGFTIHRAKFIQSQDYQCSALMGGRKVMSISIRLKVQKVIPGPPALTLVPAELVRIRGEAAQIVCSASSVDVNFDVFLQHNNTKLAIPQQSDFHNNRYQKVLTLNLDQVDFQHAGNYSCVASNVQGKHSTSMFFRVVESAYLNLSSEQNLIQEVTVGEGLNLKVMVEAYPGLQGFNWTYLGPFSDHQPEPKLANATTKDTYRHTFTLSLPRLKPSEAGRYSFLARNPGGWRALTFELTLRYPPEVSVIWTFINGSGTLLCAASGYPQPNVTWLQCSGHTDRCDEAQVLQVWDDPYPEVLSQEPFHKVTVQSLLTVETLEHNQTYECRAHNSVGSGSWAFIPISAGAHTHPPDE
c-kit, sequence (P10721 26-520 limits assumed): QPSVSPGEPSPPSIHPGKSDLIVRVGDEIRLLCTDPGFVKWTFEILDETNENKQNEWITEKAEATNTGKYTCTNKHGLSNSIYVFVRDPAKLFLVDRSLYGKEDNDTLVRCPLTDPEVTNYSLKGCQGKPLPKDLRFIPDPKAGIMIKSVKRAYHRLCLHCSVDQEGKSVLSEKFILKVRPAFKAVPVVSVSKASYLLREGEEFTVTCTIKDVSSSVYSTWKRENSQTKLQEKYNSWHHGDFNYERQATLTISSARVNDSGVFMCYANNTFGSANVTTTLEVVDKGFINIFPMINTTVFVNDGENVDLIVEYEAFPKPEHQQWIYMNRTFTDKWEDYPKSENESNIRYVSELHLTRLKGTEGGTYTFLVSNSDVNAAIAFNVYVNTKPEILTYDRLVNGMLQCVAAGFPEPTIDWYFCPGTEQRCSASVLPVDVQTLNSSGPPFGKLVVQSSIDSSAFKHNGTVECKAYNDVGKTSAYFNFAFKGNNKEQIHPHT
PDGFR-alpha on MG-63 cells, sequence (P16234 24-1089): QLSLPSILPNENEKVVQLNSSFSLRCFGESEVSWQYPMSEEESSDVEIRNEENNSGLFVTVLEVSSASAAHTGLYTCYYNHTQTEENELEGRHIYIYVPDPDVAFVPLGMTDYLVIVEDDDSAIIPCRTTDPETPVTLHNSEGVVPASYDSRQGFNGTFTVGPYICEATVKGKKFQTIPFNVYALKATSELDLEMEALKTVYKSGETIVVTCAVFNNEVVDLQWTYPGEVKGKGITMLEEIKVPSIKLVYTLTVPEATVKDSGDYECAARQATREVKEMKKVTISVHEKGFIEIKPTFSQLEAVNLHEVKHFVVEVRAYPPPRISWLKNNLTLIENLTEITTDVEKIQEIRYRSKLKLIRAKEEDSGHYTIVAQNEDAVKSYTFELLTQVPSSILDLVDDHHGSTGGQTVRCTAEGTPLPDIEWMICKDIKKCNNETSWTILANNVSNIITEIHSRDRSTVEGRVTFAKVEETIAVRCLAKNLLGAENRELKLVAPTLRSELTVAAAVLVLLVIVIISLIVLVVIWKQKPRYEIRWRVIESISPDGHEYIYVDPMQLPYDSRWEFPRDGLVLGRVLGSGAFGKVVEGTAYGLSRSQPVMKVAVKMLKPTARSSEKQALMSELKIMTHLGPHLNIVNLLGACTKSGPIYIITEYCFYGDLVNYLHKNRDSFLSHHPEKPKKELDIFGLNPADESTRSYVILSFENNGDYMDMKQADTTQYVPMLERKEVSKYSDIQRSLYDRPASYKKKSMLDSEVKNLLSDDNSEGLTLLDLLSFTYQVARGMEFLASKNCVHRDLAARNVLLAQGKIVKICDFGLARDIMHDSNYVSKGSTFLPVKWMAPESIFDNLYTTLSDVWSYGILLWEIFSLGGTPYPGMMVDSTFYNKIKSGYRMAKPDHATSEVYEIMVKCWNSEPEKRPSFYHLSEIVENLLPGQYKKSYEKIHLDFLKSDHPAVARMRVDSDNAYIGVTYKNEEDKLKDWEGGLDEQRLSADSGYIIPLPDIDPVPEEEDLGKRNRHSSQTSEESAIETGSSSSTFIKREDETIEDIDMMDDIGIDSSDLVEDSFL

The target in the first test is PDGFR-beta (UniProt P09619 33-530, limits assumed). Put plainly: method not described.
PDGFR-beta, sequence (P09619 33-530 limits assumed): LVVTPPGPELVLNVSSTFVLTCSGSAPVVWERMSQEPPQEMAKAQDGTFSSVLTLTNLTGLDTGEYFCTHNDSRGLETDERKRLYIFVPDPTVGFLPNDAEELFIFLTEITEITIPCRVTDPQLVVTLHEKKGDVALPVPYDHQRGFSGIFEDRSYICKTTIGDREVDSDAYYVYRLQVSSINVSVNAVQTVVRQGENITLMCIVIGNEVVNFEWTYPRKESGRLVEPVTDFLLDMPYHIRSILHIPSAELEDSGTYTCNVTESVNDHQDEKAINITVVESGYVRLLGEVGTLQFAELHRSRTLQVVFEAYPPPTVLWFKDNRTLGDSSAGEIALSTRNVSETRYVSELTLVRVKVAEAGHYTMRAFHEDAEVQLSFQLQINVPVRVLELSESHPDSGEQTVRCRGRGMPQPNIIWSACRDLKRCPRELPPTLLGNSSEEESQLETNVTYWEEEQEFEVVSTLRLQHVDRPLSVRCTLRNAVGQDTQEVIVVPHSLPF
With B1, the binding result is recorded as “no binding”.

For the molecule B2, the binding result is recorded as “no binding”.

For the molecule B3, the binding result is listed as “no binding”.

Consider B4, for which the binding result is listed as “no binding”.

In the case of B5, the binding result was “no binding”.

Take B6: the binding result is “no binding”.

For the molecule B7, the binding result is “no binding”.

On to B8, for which the binding result is listed as “no binding”.

On to B9, for which the binding result is given as “no binding”.

With B10, the binding result was “no binding”.

Consider B11, for which the binding result is “no binding”.

For B12, the binding result is reported as “no binding”.

As to B13, the binding result is on record as “no binding”.

In the case of B14, the binding result is reported as “no binding”.

Turning to B15, the binding result is “no binding”.

Consider B16, for which the binding result was “no binding”.

As to B17, the binding result is listed as “no binding”.

Consider B18, for which the binding result is “no binding”.

The next test concerns the target CSF-1R (UniProt P07333 20-512, limits assumed). Description: method not described.
As for B1, the binding result is listed as “no binding”.

Turning to B2, the binding result is on record as “no binding”.

In the case of B3, the binding result is “no binding”.

For B4, the binding result is on record as “no binding”.

As for B5, the binding result is “no binding”.

As for B6, the binding result is listed as “no binding”.

B7: the binding result is “no binding”.

As for B8, the binding result is on record as “no binding”.

Take B9: the binding result was “no binding”.

Regarding B10, the binding result is on record as “no binding”.

Turning to B11, the binding result is listed as “no binding”.

Take B12: the binding result was “no binding”.

As to B13, the binding result is on record as “no binding”.

For B14, the binding result is reported as “no binding”.

Turning to B15, the binding result is “no binding”.

Turning to B16, the binding result is recorded as “no binding”.

Consider B17, for which the binding result is “no binding”.

For B18, the binding result is on record as “no binding”.

The next test concerns the target c-kit (UniProt P10721 26-520, limits assumed). Description: method not described.
Turning to B1, the binding result was “no binding”.

B2: the binding result is “no binding”.

As for B3, the binding result was “no binding”.

On to B4, for which the binding result was “no binding”.

As for B5, the binding result is reported as “no binding”.

In the case of B6, the binding result is reported as “no binding”.

Consider B7, for which the binding result is given as “no binding”.

B8: the binding result is “no binding”.

With B9, the binding result is on record as “no binding”.

Consider B10, for which the binding result is “no binding”.

With B11, the binding result is on record as “no binding”.

For B12, the binding result is on record as “no binding”.

Consider B13, for which the binding result is recorded as “no binding”.

Take B14: the binding result is “no binding”.

In the case of B15, the binding result is listed as “no binding”.

Regarding B16, the binding result is given as “no binding”.

As to B17, the binding result is listed as “no binding”.

As to B18, the binding result was “no binding”.

A further test deals with FLT3 (UniProt P36888 27-541, limits assumed). Description: method not described.
B1: the binding result is reported as “no binding”.

On to B2, for which the binding result was “no binding”.

As for B3, the binding result was “no binding”.

Take B4: the binding result is on record as “no binding”.

For the molecule B5, the binding result is recorded as “no binding”.

As for B6, the binding result was “no binding”.

As for B7, the binding result is reported as “no binding”.

For B8, the binding result is “no binding”.

Take B9: the binding result is given as “no binding”.

On to B10, for which the binding result is recorded as “no binding”.

For the molecule B11, the binding result is listed as “no binding”.

Take B12: the binding result was “no binding”.

B13: the binding result was “no binding”.

As for B14, the binding result is recorded as “no binding”.

Turning to B15, the binding result is on record as “no binding”.

Regarding B16, the binding result is “no binding”.

With B17, the binding result is “no binding”.

Turning to B18, the binding result is “no binding”.

The next test has as its target PDGFR-alpha on MG-63 cells (human, UniProt P16234 24-1089). Put plainly: cell-based or functional assay.
As to B19, the “PROLIFERATION ASSAY: MG-63 CELLS, IC50” value worked out at 2.8 nM.

The record behind these values is US20090324601A1 (published 2009).
